Measured values published in US20230257454A1 (STAIDSON BEIJING BIOPHARMACEUTICALS, published 2023).

T1: human C5a (source not stated) (human, UniProt P01031 678-751)
T1 sequence: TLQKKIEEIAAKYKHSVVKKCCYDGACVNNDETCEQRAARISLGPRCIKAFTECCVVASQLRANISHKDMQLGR


Biological target: T1, human C5a (source not stated)
Assay: cell-based or functional assay

ROS IC50 [nM]	Binder
0.91	Cab22 scFv (scFv, V domains shown) VH: VVQLVESGGGLVQPGGSLKVSCTASGFIFNDYYMQWVRQAPGKGPEWVGLIRNKANGGTTEYAASVKGRFTISRDDSKSIVYLQMSSLKTEDTAVYFCTGRLGPPGLTWGQGVLVTISS VL: DAVMTQTPLSLPVTPGEPASISCRSSQSLLASDGYNYIDWYLQRPGQSPKVLIYGGSNRASGVPDRFSGSGSGTYFTLKISKVEAEDVGFYFCLQHRALPPTFGQGTKLEIK
0.92	Cab23 scFv (scFv, V domains shown) VH: EVQLVESGGGLVQPGGSLRLSCAASGFTFSDYYIQWVRQAPGKGPEWVGLIRNKAIGGTVEYAASVKGRFTISRDDSKRIAYLQMRSLKTEDTAVYFCTGRVGPPGLTWGQGVLVTISS VL: DAVMTQTPLSLPVTPGEPASISCRSSQSLLASDGYNYIDWYLQRPGQSPKVLIYGGSNRASGVPDRFSGSGSGTYFTLKISKVEAEDVGFYFCLQHRALPPTFGQGTKLEIK
1.13	Cab26 scFv (scFv, V domains shown) VH: EVQLVESGGGLVLPGGSLKVSCAASGFIFSDYYIQWVRQAPGKGPEWVGLIRNKAVGETVQYAASLKGRFTISRDDSKSIAYLQMTSLKTEDTAMYYCVSRAGPPGLTWGQGVLVTISS VL: DAVMTQTPLSLPVTPGEPASISCRSSQSLLASDGYNYIDWYLQRPGQSPKVLIYGGSNRASGVPDRFSGSGSGTYFTLKISKVEAEDVGFYFCLQHRALPPTFGQGTKLEIK
1.44	Cab24 scFv (scFv, V domains shown) VH: VVQLVESGGGLVQPGGSLKVSCAASGFIFSDYYMQWVRQAPGKGPEWVGLIRKKVNGGTTEYAASVKGRFTISRDDSKSIVYLQMSSLKIEDTAVYYCVSRAGPPGLAWGQGVLVTISS VL: DAVMTQTPLSLPVTPGEPASISCRSSQSLLASDGYNYIDWYLQRPGQSPKVLIYGGSNRASGVPDRFSGSGSGTYFTLKISKVEAEDVGFYFCLQHRALPPTFGQGTKLEIK
0.54	Cab25 scFv (scFv, V domains shown) VH: EVQLVESGGGFVQPGGSLKVSCVASGFTFSDYYIQWVRQAPGKGPEWVGLIRNKAVGGTTTYAASVKGRFTISRDDSKSVAYLQMTSLKTEDTAVYFCVSRAGPPGLSWGQGVLVTISS VL: DAVMTQTPLSLPVTPGEPASISCRSSQSLLASDGYNYIDWYLQRPGQSPKVLIYGGSNRASGVPDRFSGSGSGTYFTLKISKVEAEDVGFYFCLQHRALPPTFGQGTKLEIK
0.91	Cab39 (reformatted as human IgG1) (antibody, V domains shown) VH: EMQLVESGGGLVQPGGSLRLSCAASGFTFSDYYMQWVRQAPGKGPEWVGLIRNKAVGITTQYAASVKGRFTISRDDSKNSVYLQMNSLKTEDTAVYYCVSRAGPPGLSWGQGVLVTVSS VL: DIVMTQSPLSLPVTPGEPASISCRSSQSLLASDGYNYIDWYLQKPGQSPQLLIYGGSNRASGVPDRFSGSGSGTDFTLKISRVEAEDVGVYFCLQHRALPPTFGQGTKLEIK
0.81	Cab20 scFv (scFv, V domains shown) VH: EVQLVESGGGLVQPGGSLKVSCAASGFTFRDYYMQWVRQAPGKGPEWVGLIRNKAIGETAEYAASVKGRFTISRDDSKSIVYLQMSSLKTEDTAVYYCTSRAGPPGLSWGQGVLVTVSS VL: DIVMIQNPLSLPVTPGEPASISCRSSQSLLHSDGYTYLDWYLQKPGQSPQLLIYGGSNRASGVPDRFSGSGSGTDFTLKISKVEAEDVGVYYCMQHKVLPLTFAGGTKLEIK
1.18	Cab30 scFv (scFv, V domains shown) VH: DMQLVESGGGLVQPGGSLKVSCAASGFTFSDYYMQWVRQAPGKGPEWVGLIRNKAVGGTTQYAASVKGRFTISRDDSKSIVYLEMSSLKTEDTAVYYCVSRAGPPGLSWGQGVLVTVSS VL: DIVMTQTPLSLPVTPGEPASISCRSSQSLLHSDGYTYLDWYLQRPGQSPHLLIYGGSNRASGVPDRFSGSGSGTDFTLKISKVEAEDVGVYYCMQHKVLPPTFGQGTKLEIK
0.98	Cab28 scFv (scFv, V domains shown) VH: DMQLVESGGGLVQPGGSLKVSCAASGFTFSDYYMQWVRQAPGKGPEWVGLIRNKAVGGTTQYAASVKGRFTISRDDSKSIVYLEMSSLKTEDTAVYYCVSRAGPPGLSWGQGVLVTVSS VL: DIVMIQNPLSLPVTPGEPASISCRSSQNLLATDGYTYLDWYLQKPGQSPQVLIYGGSKRASGVPDRFSGSGSGTDFTLKISKVEAEDVGIYYCLQHRALPPTFGQGTKLEIK
1.2	Cab14 scFv (scFv, V domains shown) VH: VVQLVESGGGLVQPGGSLKVSCATSGFTFSDYYMQWVRQAPGKGPEWLGLIRNKAIGGTTQYAASVKGRFTISRDDSKGIAYLQMSSLKTEDTAVYYCVCRAGPPGLSWGQGVLVTVSS VL: DIELTQTPLSRPVTPGEPASISCRSSQSLLHTDGYTYLDWYLQKPGQSPQLLIYGGSNRASGVPDRFSGSGSGTDFTLKISKVEAEDVGVYYCMQHKALPLTFGGGTKLEIK
1.67	Cab02 scFv (scFv, V domains shown) VH: EVQLVESGGGLVQPGGSLKVSCAASGFIFSDYYMQWVRQAPGKGPEWVGLIRKKVNGGTTEYAASVKGRFTISRDDSKSIAYLQMSSLKIEDTAVYYCVSRAGPPGLTWGQGVLVTISS VL: DIVMIQTPLSLPVTPGEPASISCRSSQRLLHSDGYTYLDWYLQKPGQSPQLLIYGGSNRASGVPDRFSGSGSGTDFTLKISKVEAEDVGVYYCMQHKALPLTFGGGTKLEIK
1.22	Cab12 scFv (scFv, V domains shown) VH: VVQLVESGGGLVQPGGSLKVSCAASGFTFSDYYMQWVRQAPGKGPEWVGLIRNKAIGETTQYAASVKGRFTISRDDSKSIVYLQMSSLKTEDTAVYYCVSRAGPPGLSWGQGVLVTISS VL: DIVLTQTPLSLPVTPGEPASISCRSSQRLLHSDGYTYMDWYLQKPGQSPQILIYGGSNRASGVPDRFSGSGSGTDFTLKISKVEAEDVGVYYCMQHKALPPTFGQGTKLEIK
1.57	Cab11 scFv (scFv, V domains shown) VH: EVQLVESGGGLVQPGGSLRVSCAASGFRFSDFYMQWVRQAPGKRPEWVGLIRNKPYGGTAEYAASVKGRFTISRDDSKSVTDLQMSSLKTEDTAIYYCVMRNNGYHWGQGVLVTISS VL: DAVMTQIPLSLPVTPGEPASISCRSSQSLLHTDGYTYLDWYLQKPGQSPQLLIYGGSNRASGVPDRFSGSGSGTDFTLKISKVEAEDVGVYYCMQHKALPPTFGGGTKLEIK
1.54	Cab09 scFv (scFv, V domains shown) VH: EVQLVESGGGLVQPGGSLKVSCAASGFIFSDYYMQWVRQAPGKGPEWVGLIRKKVNGGTTEYAASVKGRFTISRDDSKSIAYLQMSSLKIEDTAVYYCVSRAGPPGLTWGQGVLVTISS VL: DIVMIQTPLSLPVTPGEPASISCRSSQSLLHSDGYTYVDWYLQKPGQSPQILIYGGSNRASGVPDRFSGSGSGTDFTLKITNVEAEDVGVYYCLQHKALPPTFGQGTKLEIK
1.03	Cab06 scFv (scFv, V domains shown) VH: EVHLVESGGGLVQPGGSLKVSCAASGFIFSDYYMQWVRQAPGKGPEWVGLIRKKVNGGTTEYAASVKGRFTISRDDSKSIVYLQMSSLKIEDTAVYYCVSRAGPPGLTWGQGVLVTISS VL: DIVMIQNPLSLPVTPGEPASISCRSSQSLLASDGYNYMDWYLQKPGQSPKVLIYGGSNRASGVPDRFSGSGSGTDFTLKITKVEAEDVGIYYCMQHKVLPPTFGQGTKLEIK
0.96	Cab29 scFv (scFv, V domains shown) VH: DMQLVESGGGLVQPGGSLKVSCAASGFTFSDYYMQWVRQAPGKGPEWVGLIRNKAVGGTTQYAASVKGRFTISRDDSKSIVYLEMSSLKTEDTAVYYCVSRAGPPGLSWGQGVLVTVSS VL: DIVMIQNPLSLSVSLGEPASISCRSSQSLLATDGYEYLDWYLQKPGQSPQILIYGASNRASGVPDRFSGRGSGTDFTLKITKVEAEDVGVYYCLQHKALPPTFGQGTKLEIK
1.07	Cab07 scFv (scFv, V domains shown) VH: DVQLVESGGGLVQPGGSLKVSCAASGFTFSDYYMQWVRQAPGKGPEWVGLIRNKAIGETTEYAASVKGRFTISRDDSKSIVYLQMSSLKTEDTAVYYCVSRAGPPGLSWGQGVLVTISS VL: DTVMTQIPLSLSVTPGEPASISCRSSQRLLHTDGYTYLDWYHQKPGQSPQLLIYGGSNRASGVPDRFSGSGSVTDFTLKISKMEAEDVGVYYCMQHKALPPTFGGGTKLEIK
0.87	Cab16 scFv (scFv, V domains shown) VH: EVHLVESGGGLVQPGGSLKVSCAASGFTFSDYYMQWVRQAPGKGPEWVGLIRNKAIGETTEYAASVKGRFTISRDDSKSIVYLQMSSLKPEDTAVYYCAGRLGPPGLSWGQGVLVTVSS VL: DAVMTQIPLSLPVTPGEPASISCRSSQSLLHTDGYTYLDWYLQKPGQSPQLLIYGGSNRASGVPDRFSGSGSGTDFTLKISKVEAEDVGVYYCMQHKALPLTFGGGTRLEIK
1.26	Cab31 scFv (scFv, V domains shown) VH: DMQLVESGGGLVQPGGSLKVSCAASGFTFSDYYMQWVRQAPGKGPEWVGLIRNKAVGGTTQYAASVKGRFTISRDDSKSIVYLEMSSLKTEDTAVYYCVSRAGPPGLSWGQGVLVTVSS VL: DTVMSQIPLSLPVTPGEPASISCRSSQSLLHSDGYTYMDWYLQKPGQSPQLLIYGGSNRASGVPDRFSGSGSGTDFTLKISKVEAEDVGVYYCMQHKVLPPTFGQGTRLEIK
1.21	Cab27 scFv (scFv, V domains shown) VH: EVQLVQSGGGLVQPGGSLKVSCAASGFTFRDYYMQWVRQAPGKGPEWVGLIRNKAIGGTTQYAASVKGRFTISRDDSKSIVYLQMSSLKTEDTAVYYCVSRAGPPGLSWGQGVLVTVSS VL: DAVMTQTPLSLPVTPGEPASISCRSSQSLLASDGYNYIDWYLQRPGQSPKVLIYGGSNRASGVPDRFSGSGSGTYFTLKISKVEAEDVGFYFCLQHRALPPTFGQGTKLEIK
2.02	Cab10 scFv (scFv, V domains shown) VH: QVQLVESGGGLVQPGGSLKVSCAASGFIFSDYYMQWVRQAPGKGPEWVGLIRKKVNGGTTEYAASVKGRFTISRDDSKSIVYLQMSSLKIEDTAVYYCVSRAGPPGLTWGQGVLITVSS VL: DTVMSQIPLSLPVTPGEPASISCRSSQSLLHTDGYIYLDWYLQKPGQSPQLLIYGGSNRASGVPDRFSGSGSGTDFTLKISKVEAEDVGVYYCMQHKALPLTFGGGTKLEIK
1.29	Cab08 scFv (scFv, V domains shown) VH: EVQLVESGGGLIQPGGSLRVSCAASGFTFSDYYLQWVRQAPGKGPEWVGLIRTKRYGGTSEYAASVKGRYTISRDDSKAIAYLQMSSLKTEDTAVYYCVVRIFTGLHWGKGTPVTVSS VL: DIVMTQTPLSRPVTPGEPASISCRSSQSLLHTDGYTYLDWYLQKPGQSPQLLIYGGSNRASGVPDRFSGSGSGTDFTLKISKVEAEDVGVYYCMQHKALPLTFGGGTKLEIK
